Test results taken from paper PMC8961594.

Key:
[1] = biological target: Histone 2B (H2B) on the surface of HUVECs (human (endogenous in HUVEC)) (UniProt P62807)
[2] = biological target: Histone 2B (H2B) on the surface of HUVECs (human (endogenous in HUVEC)) (UniProt P62807); remark: listed apart in the source

For Human Glu-plasminogen (ligand), the migration of Plg-treated (200 nM) HUVECs in Boyden chambers: decrease by Fab of the anti-H2B mAb (20 µg/mL) against control mouse Fab (Figure 3A) [1] was 47% and the Plg-mediated migration of HUVECs in Boyden chambers: decrease by anti-H2B against Plg-treated cells with control mouse IgG (Figure 3B) [2] was 50%.
